Like-named read-outs stand apart in the source and are kept apart here.

The values below come from patent US20110217237A1 (AbbVie / Abbott, published 2011).

In assay [1] the target is T1, human DLL4, full length, on cells (human, UniProt Q9NR61 27-685). The assay can be described thus: cell-based or functional assay.
Assay [2] concerns the target T2, rat DLL4 extracellular domain (rat, UniProt D3ZHH1 28-530).
T2 construct: extracellular domain; also called ratDLL4 ECD
The assay can be described thus: SPR (Biacore). Put shortly:
(§1)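 Purified anti-DLL4 antibodies (1 μg/ml) captured on immobilized goat anti-human Fc, with DLL4 ECD injected as analyte; HBS-EPB running buffer (pH 7.4), 25° C, referenced against capture-only surface. On/off rates from global 1:1 Langmuir fit; KD = Koff/Kon.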

Assay [3] deals with T3, mouse DLL4 extracellular domain (mouse, UniProt Q9JI71 27-532).
T3 construct: extracellular domain; also called muDLL4 ECD; murine DLL4
T3 sequence (Q9JI71 27-532): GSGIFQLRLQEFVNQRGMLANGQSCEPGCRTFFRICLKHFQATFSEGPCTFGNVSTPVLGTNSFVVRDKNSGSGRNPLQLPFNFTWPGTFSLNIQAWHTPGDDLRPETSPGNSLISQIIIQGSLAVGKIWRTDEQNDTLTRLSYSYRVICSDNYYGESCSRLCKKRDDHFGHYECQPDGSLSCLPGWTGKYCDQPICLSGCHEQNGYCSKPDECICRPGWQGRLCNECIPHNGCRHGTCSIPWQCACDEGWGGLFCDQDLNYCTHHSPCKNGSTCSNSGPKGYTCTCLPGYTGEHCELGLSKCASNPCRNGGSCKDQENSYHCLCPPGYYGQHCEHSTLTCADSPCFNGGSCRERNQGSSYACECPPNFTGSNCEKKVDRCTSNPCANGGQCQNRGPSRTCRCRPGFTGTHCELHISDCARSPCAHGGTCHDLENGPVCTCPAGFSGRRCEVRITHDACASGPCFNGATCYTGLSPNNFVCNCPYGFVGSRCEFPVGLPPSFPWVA
Nature of the assay: SPR (Biacore). The gist of the method:
as §1
For orientation: Surface plasmon resonance follows binding to a sensor surface in real time, without labels.

The target of assay [4] is T4, human DLL4 extracellular domain (human, UniProt Q9NR61 27-529).
T4 construct: purified recombinant ECD; biotin-labelled or 6xHis-tagged depending on the assay; also called huDLL4 ECD; hu DLL4 ECD
T4 sequence (Q9NR61 27-529 limits assumed): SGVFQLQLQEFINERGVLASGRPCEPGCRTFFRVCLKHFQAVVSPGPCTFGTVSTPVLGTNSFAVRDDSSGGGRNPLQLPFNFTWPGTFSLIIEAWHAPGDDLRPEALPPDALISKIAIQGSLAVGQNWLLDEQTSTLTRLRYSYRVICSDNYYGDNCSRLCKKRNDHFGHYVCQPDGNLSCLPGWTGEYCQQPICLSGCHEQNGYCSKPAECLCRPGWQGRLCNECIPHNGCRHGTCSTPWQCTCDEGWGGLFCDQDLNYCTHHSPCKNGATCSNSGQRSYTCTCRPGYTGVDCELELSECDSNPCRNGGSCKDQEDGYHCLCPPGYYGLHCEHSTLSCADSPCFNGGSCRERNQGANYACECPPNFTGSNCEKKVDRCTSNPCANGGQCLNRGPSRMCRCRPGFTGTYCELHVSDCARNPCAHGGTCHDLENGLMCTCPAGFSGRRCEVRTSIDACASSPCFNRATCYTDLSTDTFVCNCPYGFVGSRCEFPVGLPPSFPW
The assay can be described thus: SPR (Biacore). The procedure:
(§2) The BIACORE® surface plasmon resonance assay (Biacore, Inc., Piscataway, N.J., US) determines the affinity of antibodies with kinetic measurements of on-rate and off-rate constants. Binding of DLL4 antibodies to a purified recombinant DLL4 extracellular domain (ECD) was determined by surface plasmon resonance-based measurements with a Biacore® instrument (either a Biacore 2000, Biacore 3000, or Biacore T100; GE Healthcare, Piscataway, N.J., US) using running buffer HBS-EPB (10 mM HEPES [pH 7.4], 150 mM NaCl, 3 mM EDTA, 0.1 mg/ml BSA and 0.005% surfactant P20) at 25° C. For example, approximately 9000 RU of goat anti-human Fc specific polyclonal antibody (Thermo Fisher Scientific Inc., Rockford, Ill., US) diluted in 10 mM sodium acetate (pH 4.5) is directly immobilized across a CMS research grade biosensor chip using a standard amine coupling kit according to manufacturer's instructions and procedures at 25 μg/ml. Unreacted moieties on the biosensor surface were blocked with ethanolamine. For kinetic analysis, rate equations derived from the 1:1 Langmuir binding model were fitted simultaneously to multiple antigen injections (using global fit analysis) with the use of Scrubber 2 (BioLogic Software), Biacore Biaevaluation 4.0.1 software or Biacore T100 Evaluation software. Purified antibodies were diluted in running buffer for capture across goat anti-human Fc reaction surfaces. Antibodies to be captured as a ligand (1 μg/ml) were injected over reaction matrices at a flow rate of 10 μl/min. During the assay, all measurements were referenced against the capture surface alone (i.e., with no captured anti-DLL4 antibody). […] The equilibrium dissociation constant KD (M) of the reaction between antibodies and the target antigen was then calculated from the kinetic rate constants by the following formula: KD=Koff/Kₒₙ. Binding was recorded as a function of time and kinetic rate constants were calculated.

Assay [5] has as its target T5, cynomolgus monkey DLL4 extracellular domain (cynomolgus monkey).
T5 construct: extracellular domain; also called cynoDLL4 ECD; Cyno DLL4
Nature of the assay: SPR (Biacore). Here is the method:
as §2

The target in assay [6] is T3, mouse DLL4 extracellular domain. Nature of the assay: competition ELISA: biotin-DLL4 ECD to coated huNotch-1. Here is the method:
Plates were then washed 3 times with wash buffer (PBS, 0.05% Tween-20) and blocked with 200 μl/well blocking buffer (D-PBS, 1% BSA, 1 mM CaCl₂, 0.05% Tween-20) for 1 hour at 25° C. While blocking, biotin labeled DLL4 extracellular domain (14 nM) was mixed with antibody (30 pM-66 nM, 3-fold serial dilution in blocking buffer) for 1 hour at 25° C. with shaking. Assay plates were washed after blocking, and incubated with DLL4/antibody mixtures (100 μl/well, 1 hour at 25° C. with shaking). Plates were washed again and 100 μl/well streptavidin conjugated with HRP (Fitzgerald #65R-S104PHRPx, diluted 1:5,000 in blocking buffer) was added for 1 hour at 25° C. with shaking. After a final wash, plates were developed using 100 μl/well substrate (TMB Sigma #T8665), and the reaction was stopped using 100 μl/well 1N HCl, and the absorbance was read at 450 nm. Data were analyzed using Graphpad Prism software and IC₅₀ values were reported as the concentration of antibody to achieve 50% reduction of DLL4 bound to Notch1.
Further characterization determined 37D10 and 40B10 were identical rat mAbs.

Assay [7] addresses T1, human DLL4, full length, on cells. The assay can be described thus: FACS, DLL4 cells. The procedure: (§3) Stable cell lines overexpressing cell-surface DLL4 were harvested from tissue culture flasks, washed four times and resuspended in phosphate buffered saline (PBS) containing 1% bovine serum albumin and 1 mM CaCl₂ (FACS buffer). 1.5×10⁵ cells were incubated with antibodies at various concentrations in FACS buffer for 60 minutes on ice. […] Following an incubation on ice (4° C., 60 minutes), cells were washed three times and resuspended in FACS buffer. Fluorescence was measured using a Becton Dickinson FACSCalibur-HTS (Becton Dickinson, San Jose, Calif., US). Data were analyzed using Graphpad Prism software and EC₅₀ values were reported as the concentration of antibody to achieve 50% of maximal DLL4 antibodies binding to DLL4 expressing cells. […]
A general note: Flow cytometry measures light scatter and fluorescence of single cells or particles in a stream.

For assay [8], the target named is T6, mouse DLL4 on cells (mouse, UniProt Q9JI71 27-686).
T6 construct: whole, on cells; also called mouse DLL4-293G; mu DLL4 cells
T6 sequence (Q9JI71 27-686): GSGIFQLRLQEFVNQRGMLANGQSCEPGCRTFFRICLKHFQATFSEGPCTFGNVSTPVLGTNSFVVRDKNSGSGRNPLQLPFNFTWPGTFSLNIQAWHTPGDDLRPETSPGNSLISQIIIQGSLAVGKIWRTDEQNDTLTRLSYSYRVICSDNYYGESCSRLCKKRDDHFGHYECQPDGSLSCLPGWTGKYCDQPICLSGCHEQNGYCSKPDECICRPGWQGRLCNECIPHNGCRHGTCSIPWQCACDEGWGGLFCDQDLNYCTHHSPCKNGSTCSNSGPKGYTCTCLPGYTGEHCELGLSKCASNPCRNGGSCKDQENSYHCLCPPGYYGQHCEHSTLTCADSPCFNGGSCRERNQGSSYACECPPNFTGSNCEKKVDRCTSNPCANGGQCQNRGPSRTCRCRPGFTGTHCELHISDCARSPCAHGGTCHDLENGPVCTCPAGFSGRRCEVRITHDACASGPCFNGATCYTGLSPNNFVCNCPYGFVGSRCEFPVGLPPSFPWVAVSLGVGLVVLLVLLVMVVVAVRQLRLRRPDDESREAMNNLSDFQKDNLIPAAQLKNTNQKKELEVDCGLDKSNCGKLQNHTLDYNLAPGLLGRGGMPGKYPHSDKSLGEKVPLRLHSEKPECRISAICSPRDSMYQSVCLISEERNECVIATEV
The assay can be described thus: FACS, DLL4 cells. Here is the method: as §3

For assay [9], the target named is T1, human DLL4, full length, on cells. The assay can be described thus: competition FACS: huNotch-1-biotin to DLL4 cells. Here is the method:
(§4) Notch blocking assay: Briefly, stable cell lines overexpressing cell-surface DLL4 were harvested from tissue culture flasks and re-suspended in phosphate buffered saline (PBS) containing 1% bovine serum albumin and 1 mM CaCl₂ (FACS buffer). HEK293G-DLL4 cells were dispensed into 96-well plate (v-bottom) at 1.5×10⁵ cells/well in FACS buffer. After spinning down cells and discarding the supernatant, 50 μL of purified IgG with appropriate dilution were added to each well, and incubated on ice at 4° C. for 60 minutes, followed by addition of 50 μL/well of Notch1-biotin at 0.2 μg/mL for human DLL4-293G or 2.0 μg/mL for mouse DLL4-293G (1.0 or 0.1 μg/mL final) for an additional 1 hour incubation ice at 4° C. After washing the cells two times with FACS buffer, 50 μL of R-phycoerythrin-conjugated streptavidin (1:150 dilution in FACS buffer) (Jackson ImmunoResearch, West Grove, Pa., Cat.#016-110-084) were added. Following an incubation on ice (4° C., 60 minutes), cells were washed three times and resuspended in FACS buffer. Fluorescence was measured using a Becton Dickinson FACSCalibur-HTS (Becton Dickinson, San Jose, Calif.). Data were analyzed using Graphpad Prism software, and IC₅₀ values were reported as the concentration of antibody to achieve 50% reduction of Notch1 bound to DLL4 expressing cells. […]

Assay [10] deals with T6, mouse DLL4 on cells. The assay can be described thus: competition FACS: huNotch-1-biotin to DLL4 cells. Here is the method:
as §4

For assay [11], the target named is T4, human DLL4 extracellular domain. The assay can be described thus: SPR (Biacore). The source holds these as a separate data set.
Assay [12] shares this target. The assay can be described thus: binding ELISA.
Assay [13] deals with T5, cynomolgus monkey DLL4 extracellular …. The assay can be described thus: binding ELISA. For orientation: In an ELISA, binding on a coated surface is turned into a signal by an enzyme label.
Assay [14] has as its target T3, mouse DLL4 extracellular domain. The assay can be described thus: binding ELISA.
Assay [15] concerns the target T1, human DLL4, full length, on cells. The assay can be described thus: competition FACS: huNotch-1 to DLL4 cells. Here is the method: (§5) Notch blocking assay: Briefly, stable cell lines overexpressing cell-surface DLL4 were harvested from tissue culture flasks and re-suspended in phosphate buffered saline (PBS) containing 1% bovine serum albumin and 1 mM CaCl₂ (FACS buffer). HEK293G-DLL4 cells were dispensed into 96-well plate (v-bottom) at 1.5×10⁵ cells/well in FACS buffer. After spinning down cells and discarding the supernatant, 50 μL of purified IgG with appropriate dilution were added to each well, and incubated on ice at 4° C. for 60 minutes, followed by addition of 50 μL/well of Notch1-biotin at 0.2 μg/mL for human DLL4-293G or 2.0 μg/mL for mouse DLL4-293G (1.0 or 0.1 μg/mL final) for an additional 1 hour incubation ice at 4° C. After washing the cells two times with FACS buffer, 50 μL of R-phycoerythrin-conjugated streptavidin (1:150 dilution in FACS buffer) (Jackson ImmunoResearch, West Grove, Pa., Cat.#016-110-084) were added. Following an incubation on ice (4° C., 60 minutes), cells were washed three times and resuspended in FACS buffer. Fluorescence was measured using a Becton Dickinson FACSCalibur-HTS (Becton Dickinson, San Jose, Calif.). Data were analyzed using Graphpad Prism software, and IC₅₀ values were reported as the concentration of antibody to achieve 50% reduction of Notch1 bound to DLL4 expressing cells.

The target of assay [16] is T6, mouse DLL4 on cells. The assay can be described thus: competition FACS: huNotch-1 to DLL4 cells. The procedure: as §5
The target of assay [17] is T1, human DLL4, full length, on cells. The assay can be described thus: FACS, DLL4 cells. The source holds these as a separate data set.
Assay [18] concerns the target T6, mouse DLL4 on cells. Nature of the assay: FACS, DLL4 cells. The source holds these as a separate data set.
For assay [19], the target named is T1, human DLL4, full length, on cells. The assay can be described thus: cell-based or functional assay. This is another data set of the same source.
In assay [20] the target is T4, human DLL4 extracellular domain. Nature of the assay: competition ELISA vs Notch-1.
In assay [21] the target is T3, mouse DLL4 extracellular domain. Nature of the assay: competition ELISA vs Notch-1.
Assay [22] has as its target T1, human DLL4, full length, on cells. The assay can be described thus: FACS, DLL4 cells. The source holds these as a separate data set.
For assay [23], the target named is T6, mouse DLL4 on cells. The assay can be described thus: FACS, DLL4 cells. This is another data set of the same source.

T1 sequence (Q9NR61 27-685 limits assumed): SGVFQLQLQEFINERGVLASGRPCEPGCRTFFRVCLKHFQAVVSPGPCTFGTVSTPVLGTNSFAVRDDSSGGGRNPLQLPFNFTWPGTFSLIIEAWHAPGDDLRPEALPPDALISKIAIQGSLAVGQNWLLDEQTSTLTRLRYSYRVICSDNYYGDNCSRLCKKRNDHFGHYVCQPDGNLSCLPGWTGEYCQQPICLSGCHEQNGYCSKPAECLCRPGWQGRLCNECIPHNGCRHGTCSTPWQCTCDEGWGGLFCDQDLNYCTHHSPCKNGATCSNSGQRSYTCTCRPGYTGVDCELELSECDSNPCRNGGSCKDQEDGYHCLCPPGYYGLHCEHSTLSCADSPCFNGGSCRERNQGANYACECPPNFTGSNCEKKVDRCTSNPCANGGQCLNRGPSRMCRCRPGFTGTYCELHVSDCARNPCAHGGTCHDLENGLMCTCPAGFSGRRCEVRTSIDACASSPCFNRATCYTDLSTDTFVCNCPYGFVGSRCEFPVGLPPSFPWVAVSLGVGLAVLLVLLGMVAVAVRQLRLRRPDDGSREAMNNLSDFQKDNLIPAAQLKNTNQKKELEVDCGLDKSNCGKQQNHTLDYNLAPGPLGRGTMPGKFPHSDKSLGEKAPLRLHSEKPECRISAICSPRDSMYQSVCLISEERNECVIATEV
T2 sequence (D3ZHH1 28-530): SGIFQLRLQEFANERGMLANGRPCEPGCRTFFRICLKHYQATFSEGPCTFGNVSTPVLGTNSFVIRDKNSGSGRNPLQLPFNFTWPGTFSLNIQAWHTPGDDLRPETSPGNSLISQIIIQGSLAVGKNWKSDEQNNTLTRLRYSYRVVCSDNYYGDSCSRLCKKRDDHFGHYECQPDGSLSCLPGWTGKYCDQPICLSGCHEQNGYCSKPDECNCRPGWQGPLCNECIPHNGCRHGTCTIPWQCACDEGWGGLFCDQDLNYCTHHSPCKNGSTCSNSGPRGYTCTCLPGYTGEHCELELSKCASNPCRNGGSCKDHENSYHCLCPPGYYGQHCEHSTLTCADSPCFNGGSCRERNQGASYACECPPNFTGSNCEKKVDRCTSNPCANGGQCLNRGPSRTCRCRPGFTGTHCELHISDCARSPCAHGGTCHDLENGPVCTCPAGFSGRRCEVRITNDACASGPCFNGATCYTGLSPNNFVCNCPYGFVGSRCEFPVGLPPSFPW

B1: 14A11 rat anti-DLL4 monoclonal antibody (antibody, rat IgG2a, V domains shown)
VH: EVQLQQSGPELAKPGSSVKISCKASGYTFTNSYISWIKQTTGQGLEYVGYINTGSGGADYNEKFKGKATLTVDKSSRTAFMQLSSLTPGDSAVYYCAKSILLGSTCYFDYWGQGVLVTVSS
VL: NTVLTQSPALAVSLGQRVTISCKASRSVSSPMYSYIYWYQQKPGQQPKLLIYRASTLASGVPARFSGSGSGTDFTLNIDPVEADDIATYFCQQSWSDPFTFGSGTKLEIKR
notes: rat IgG2a/K hybridoma mAb; also called MC13-14A11.3A4
For B1, in [1], the “Notch activation Inhibition (IC50, nM), huDLL4 cell/Notch reporter cells” value worked out at 2.7 nM. In addition, the binding result in assay [2] is reported as “no binding”. Further, the Kd (usually the concentration at which binding is half-saturated) in assay [3] was determined as 1.3 nM; in assay [4], 10.3 nM; in assay [5] it was 11.6 nM. For the same molecule, the koff (usually the first-order rate constant of dissociation) in assay [3] was found to be 9e-05 s⁻¹; in assay [4] it was 0.0012 s⁻¹; in assay [5], 0.0012 s⁻¹. The figures for the kon in [3], in assay [4] and in assay [5] were 70000 M⁻¹ s⁻¹, 120000 M⁻¹ s⁻¹ and 110000 M⁻¹ s⁻¹, respectively. Besides, the IC50 (as a rule, the concentration that inhibits the measured activity by half) came out at 19.8 nM in assay [6], 205 nM in assay [9] and 1.6 nM with mouse DLL4 on cells [10]. For the same molecule, the EC50 (usually the midpoint of the concentration-response curve) was greater than 50 nM in assay [7] and 2.1 nM with mouse DLL4 on cells [8].

B2: 1A11 chimeric antibody (antibody, human IgG1, V domains shown)
VH: EVQLVESGGGLVQPGRSMKLSCAASGFTFRNFPMAWVRQAPTRGLEWVATISSSDGTTYYRDSVKGRFTISRDNAKSTLYLQVNSLRSEDTATYYCSRGYYNSPFAYWGQGTLVTVSS
VL: DIQMTQSPASLSASLGETVTIECRASEDIYSNLAWYQQKPGNSPQLLIFDTNNLADGVPSRFSGSGSGTQSSLKINSLQSEDVASYFCQQYNNYPPTFGGGTKLELKR
notes: also called Chimera of 1A11; 1A11 (chimera)
As for B2, the Kd in assay [11] was found to be 9 nM; in assay [3], 24 nM. The EC50 in assay [12] was 0.2 nM; in assay [13], 0.33 nM; in [14], 0.3 nM; in assay [17] it was 6.29 nM; in the assay with mouse DLL4 on cells [18], 0.53 nM; in assay [22], 19.6 nM. Besides, the EC50 with mouse DLL4 on cells [23] came out at 0.74 nM. Besides, the IC50 was determined as 2.34 nM in [15], 0.682 nM with mouse DLL4 on cells [16], 1.8 nM in assay [20] and 3.5 nM in [21]. In addition, in assay [19], the “Reporter Assay (EC50, nM)” value worked out at 5.98 nM.
